Measurements published in article PMC8644300.

Columns and labels:
[1] = target: K+ exchange antiporter 3 (KEA3), native KEA3.2 isoform (Arabidopsis thaliana (endogenous in Col-0)) (UniProt Q9M0Z3); assay: native gel or EMSA; Blue Native PAGE of thylakoid membranes solubilized with 0.7% β-DM, blotted and detected with the antibody against the KEA3 C-terminus; native protein marker for size
[2] = target: recombinant KEA3 C-terminus (Arabidopsis thaliana); assay: native gel or EMSA; native gel electrophoresis (without SDS) of the SEC fraction with the KEA3 C-terminus, in phosphate-buffered saline pH 8
[3] = target: recombinant KEA3 C-terminus (Arabidopsis thaliana); assay: SEC; Superdex 200 Increase 10/300 GL, calibrated with low and high molecular weight kits; Ni-NTA eluate treated with 2 mM EDTA to remove residual Ni2+ before the run

stoichiometry N [1] | stoichiometry N [2] | stoichiometry N [3] | Substance
2 | – | – | K+ exchange antiporter 3 (KEA3), native KEA3.2 isoform (from UniProt Q9M0Z3-1 73-776) (natural protein)
– | 2 | 2 | recombinant KEA3 C-terminus (domain or fragment)
